Measured values from the supplement of paper PMC10065799, “High-throughput profiling of sequence recognition by tyrosine kinases and SH2 domains using bacterial peptide display” (eLife, 2023).
One block for each sequence: values may come before it.

How the values were obtained:
FGFR3 = FGFR3 (UniProt P22607); test: phosphorylation enrichment, bacterial display (enrichment ratio); higher = better substrate or ligand; peptides without Tyr show the background
Jak2 = Jak2 (UniProt O60674); test: as above
Fyn = Fyn (UniProt P06241); test: as above
MERTK = MERTK (UniProt Q12866); test: as above
FGFR1 = FGFR1 (UniProt P11362); test: as above
Fes = Fes (UniProt P07332); test: as above
c-Abl (mouse) = test: as above
EPHB2 = EPHB2 (UniProt P29323); test: as above
EPHB1 = EPHB1 (UniProt P54762); test: as above
c-Src = test: as above
Hck = Hck (UniProt P08631); test: as above
Fer (mouse) = test: as above
AncSZ = test: as above
c-Src SH2 = test: SH2 binding enrichment of the phosphorylated peptide, bacterial display (enrichment ratio); higher = better substrate or ligand; peptides without Tyr show the background
Grb2 SH2 = Grb2 SH2 (UniProt P62993); test: as above
SHP2-C SH2 = test: as above
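Throughout, for SH2 binding enrichment of the phosphorylated peptide, bacterial display: peptide library displayed on the E. coli surface as eCPX fusions, selected cells deep-sequenced, score is each peptide's frequency after selection divided by its frequency in the input.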
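Throughout, for phosphorylation enrichment, bacterial display: 11-residue human phosphosite peptides and single-mutation variants displayed on the E. coli surface, counted by deep sequencing, each peptide's frequency after selection divided by its frequency in the unselected input library; frequency after pTyr selection over input frequency; kinase dosed for 20-30% of maximal phosphorylation in three min.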

Chain of Fyn (P06241 whole entry, looked up): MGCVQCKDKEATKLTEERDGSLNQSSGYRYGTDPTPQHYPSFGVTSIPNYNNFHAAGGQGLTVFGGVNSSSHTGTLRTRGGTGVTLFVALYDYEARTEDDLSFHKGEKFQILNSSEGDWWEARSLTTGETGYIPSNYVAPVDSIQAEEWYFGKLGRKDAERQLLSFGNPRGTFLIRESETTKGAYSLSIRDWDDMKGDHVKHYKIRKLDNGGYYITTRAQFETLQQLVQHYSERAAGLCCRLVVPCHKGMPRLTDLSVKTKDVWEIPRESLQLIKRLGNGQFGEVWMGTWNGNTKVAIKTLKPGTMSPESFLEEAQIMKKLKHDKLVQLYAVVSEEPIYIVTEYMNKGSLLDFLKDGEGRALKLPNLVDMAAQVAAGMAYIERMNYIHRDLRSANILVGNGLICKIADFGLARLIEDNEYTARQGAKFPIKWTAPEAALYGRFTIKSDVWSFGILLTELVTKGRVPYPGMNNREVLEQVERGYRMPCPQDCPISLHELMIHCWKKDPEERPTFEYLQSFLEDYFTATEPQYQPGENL
Chain of MERTK (Q12866 whole entry, looked up): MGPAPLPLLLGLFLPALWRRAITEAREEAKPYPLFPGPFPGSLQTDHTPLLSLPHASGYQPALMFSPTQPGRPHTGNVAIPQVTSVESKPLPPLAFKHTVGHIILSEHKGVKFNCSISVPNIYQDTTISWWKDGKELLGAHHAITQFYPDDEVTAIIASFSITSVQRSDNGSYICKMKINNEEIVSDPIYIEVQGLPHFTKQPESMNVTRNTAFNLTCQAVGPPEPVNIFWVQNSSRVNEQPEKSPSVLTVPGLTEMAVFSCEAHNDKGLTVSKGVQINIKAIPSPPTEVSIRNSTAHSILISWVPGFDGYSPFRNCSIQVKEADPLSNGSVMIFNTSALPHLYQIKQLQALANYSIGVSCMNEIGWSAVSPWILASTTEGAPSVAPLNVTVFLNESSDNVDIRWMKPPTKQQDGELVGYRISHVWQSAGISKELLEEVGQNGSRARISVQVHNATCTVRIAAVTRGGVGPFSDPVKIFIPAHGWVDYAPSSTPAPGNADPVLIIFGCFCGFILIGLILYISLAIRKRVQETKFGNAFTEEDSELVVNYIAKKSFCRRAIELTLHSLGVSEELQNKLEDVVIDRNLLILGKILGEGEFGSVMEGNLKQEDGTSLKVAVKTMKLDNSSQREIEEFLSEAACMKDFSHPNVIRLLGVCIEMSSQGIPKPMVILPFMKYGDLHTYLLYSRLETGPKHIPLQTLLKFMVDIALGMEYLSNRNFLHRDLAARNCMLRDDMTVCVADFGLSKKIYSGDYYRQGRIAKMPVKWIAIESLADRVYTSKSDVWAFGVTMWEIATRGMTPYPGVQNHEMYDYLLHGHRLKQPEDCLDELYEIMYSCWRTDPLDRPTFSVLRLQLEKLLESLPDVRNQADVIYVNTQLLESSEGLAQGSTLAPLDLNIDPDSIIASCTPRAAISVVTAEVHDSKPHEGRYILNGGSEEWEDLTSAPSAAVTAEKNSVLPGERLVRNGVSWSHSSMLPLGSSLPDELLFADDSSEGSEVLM
Chain of EPHB2 (P29323 whole entry, looked up): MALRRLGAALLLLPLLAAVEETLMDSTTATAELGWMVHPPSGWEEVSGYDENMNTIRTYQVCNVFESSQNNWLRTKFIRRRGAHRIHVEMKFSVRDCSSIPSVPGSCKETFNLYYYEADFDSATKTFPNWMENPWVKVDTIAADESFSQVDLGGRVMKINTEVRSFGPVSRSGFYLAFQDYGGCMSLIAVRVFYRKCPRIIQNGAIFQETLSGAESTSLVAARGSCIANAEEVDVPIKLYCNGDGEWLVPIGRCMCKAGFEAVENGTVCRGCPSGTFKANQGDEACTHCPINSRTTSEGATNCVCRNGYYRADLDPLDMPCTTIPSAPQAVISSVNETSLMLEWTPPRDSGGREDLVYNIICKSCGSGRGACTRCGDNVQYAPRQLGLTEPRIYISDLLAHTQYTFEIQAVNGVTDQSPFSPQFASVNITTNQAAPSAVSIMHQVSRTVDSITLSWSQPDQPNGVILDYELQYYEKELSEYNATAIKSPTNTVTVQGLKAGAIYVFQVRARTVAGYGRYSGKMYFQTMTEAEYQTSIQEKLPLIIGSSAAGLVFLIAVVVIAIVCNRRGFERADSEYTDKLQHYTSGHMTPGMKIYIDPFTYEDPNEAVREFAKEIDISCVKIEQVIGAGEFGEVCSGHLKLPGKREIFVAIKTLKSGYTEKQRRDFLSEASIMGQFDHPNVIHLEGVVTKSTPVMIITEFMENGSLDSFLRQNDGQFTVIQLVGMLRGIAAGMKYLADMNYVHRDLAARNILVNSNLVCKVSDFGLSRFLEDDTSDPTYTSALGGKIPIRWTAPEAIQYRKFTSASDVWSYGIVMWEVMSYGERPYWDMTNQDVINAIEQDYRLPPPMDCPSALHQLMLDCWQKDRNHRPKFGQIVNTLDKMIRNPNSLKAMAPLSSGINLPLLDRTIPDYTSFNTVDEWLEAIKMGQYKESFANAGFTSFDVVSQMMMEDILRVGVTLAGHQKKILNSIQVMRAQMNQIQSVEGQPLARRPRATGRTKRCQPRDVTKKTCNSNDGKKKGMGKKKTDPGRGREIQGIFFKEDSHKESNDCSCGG
Chain of FGFR1 (P11362 whole entry, looked up): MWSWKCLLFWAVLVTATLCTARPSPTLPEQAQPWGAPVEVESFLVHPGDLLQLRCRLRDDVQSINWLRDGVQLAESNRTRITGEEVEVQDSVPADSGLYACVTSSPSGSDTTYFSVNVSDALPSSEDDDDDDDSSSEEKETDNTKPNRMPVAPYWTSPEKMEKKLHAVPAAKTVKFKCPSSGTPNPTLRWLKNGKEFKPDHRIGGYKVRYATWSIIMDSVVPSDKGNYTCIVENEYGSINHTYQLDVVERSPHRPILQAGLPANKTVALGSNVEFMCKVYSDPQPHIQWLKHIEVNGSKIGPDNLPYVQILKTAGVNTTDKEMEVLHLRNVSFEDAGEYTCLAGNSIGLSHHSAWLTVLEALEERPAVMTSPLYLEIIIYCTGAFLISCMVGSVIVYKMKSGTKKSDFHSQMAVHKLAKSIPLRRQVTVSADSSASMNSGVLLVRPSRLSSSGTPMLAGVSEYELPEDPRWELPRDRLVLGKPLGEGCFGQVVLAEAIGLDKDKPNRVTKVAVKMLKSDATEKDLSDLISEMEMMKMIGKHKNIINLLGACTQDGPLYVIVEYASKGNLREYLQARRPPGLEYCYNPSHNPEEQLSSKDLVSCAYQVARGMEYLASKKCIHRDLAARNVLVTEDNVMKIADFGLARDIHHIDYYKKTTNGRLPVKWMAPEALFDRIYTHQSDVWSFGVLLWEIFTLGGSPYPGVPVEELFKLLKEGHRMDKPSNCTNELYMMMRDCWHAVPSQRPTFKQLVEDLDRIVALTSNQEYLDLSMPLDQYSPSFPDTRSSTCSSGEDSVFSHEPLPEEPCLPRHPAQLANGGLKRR
Chain of Jak2 (O60674 whole entry, looked up): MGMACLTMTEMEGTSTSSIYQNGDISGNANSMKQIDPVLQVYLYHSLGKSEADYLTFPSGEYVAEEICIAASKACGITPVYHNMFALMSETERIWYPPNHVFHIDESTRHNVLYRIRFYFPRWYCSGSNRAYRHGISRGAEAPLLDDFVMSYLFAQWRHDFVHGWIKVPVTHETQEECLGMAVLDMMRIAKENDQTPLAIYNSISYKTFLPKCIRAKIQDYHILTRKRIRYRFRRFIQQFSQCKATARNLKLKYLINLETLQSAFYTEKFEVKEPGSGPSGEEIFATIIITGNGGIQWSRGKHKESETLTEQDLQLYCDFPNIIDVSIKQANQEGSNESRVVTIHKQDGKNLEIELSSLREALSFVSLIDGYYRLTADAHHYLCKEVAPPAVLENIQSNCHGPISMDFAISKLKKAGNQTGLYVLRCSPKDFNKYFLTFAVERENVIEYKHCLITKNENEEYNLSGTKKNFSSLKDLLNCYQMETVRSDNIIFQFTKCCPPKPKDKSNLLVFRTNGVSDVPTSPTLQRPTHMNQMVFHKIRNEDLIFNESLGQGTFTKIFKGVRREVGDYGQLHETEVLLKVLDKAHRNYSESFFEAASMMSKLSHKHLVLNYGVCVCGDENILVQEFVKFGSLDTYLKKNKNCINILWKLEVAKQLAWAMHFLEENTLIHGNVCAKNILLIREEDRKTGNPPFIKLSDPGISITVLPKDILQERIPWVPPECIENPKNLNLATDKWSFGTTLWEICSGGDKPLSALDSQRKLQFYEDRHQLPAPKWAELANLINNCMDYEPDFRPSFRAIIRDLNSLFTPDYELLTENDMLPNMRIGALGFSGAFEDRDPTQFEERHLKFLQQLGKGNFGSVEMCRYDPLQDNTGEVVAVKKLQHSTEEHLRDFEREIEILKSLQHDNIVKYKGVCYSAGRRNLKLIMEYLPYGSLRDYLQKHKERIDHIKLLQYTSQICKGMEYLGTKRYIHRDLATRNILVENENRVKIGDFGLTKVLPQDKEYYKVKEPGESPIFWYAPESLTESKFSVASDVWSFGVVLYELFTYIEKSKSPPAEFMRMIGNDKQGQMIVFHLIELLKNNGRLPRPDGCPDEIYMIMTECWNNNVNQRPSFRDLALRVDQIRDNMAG
Chain of Hck (P08631 whole entry, looked up): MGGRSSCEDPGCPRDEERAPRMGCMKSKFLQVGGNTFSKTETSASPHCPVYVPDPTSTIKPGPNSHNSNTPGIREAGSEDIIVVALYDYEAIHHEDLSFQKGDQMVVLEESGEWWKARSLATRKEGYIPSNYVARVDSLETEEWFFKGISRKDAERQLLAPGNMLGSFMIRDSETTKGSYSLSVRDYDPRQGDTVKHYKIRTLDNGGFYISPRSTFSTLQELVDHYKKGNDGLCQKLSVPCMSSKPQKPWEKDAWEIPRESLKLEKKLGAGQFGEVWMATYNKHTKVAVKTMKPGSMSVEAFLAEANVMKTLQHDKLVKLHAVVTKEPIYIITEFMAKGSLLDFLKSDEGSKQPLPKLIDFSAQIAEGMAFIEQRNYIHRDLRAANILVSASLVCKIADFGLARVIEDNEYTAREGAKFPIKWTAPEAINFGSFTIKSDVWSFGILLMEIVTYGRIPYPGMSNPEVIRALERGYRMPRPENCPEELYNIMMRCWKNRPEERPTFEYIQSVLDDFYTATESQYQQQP

Sequence: FSTSPYLLEAA [BRIP1_Y921_YF]
- phosphorylation enrichment (FGFR3): 0.667
- phosphorylation enrichment (Jak2): 0.724
- phosphorylation enrichment (Fyn): 3.49
- phosphorylation enrichment (MERTK): 0.437
- phosphorylation enrichment (FGFR1): 0.408
- phosphorylation enrichment (Fes): 0.962
- phosphorylation enrichment (c-Abl (mouse)): 0.458
- phosphorylation enrichment (EPHB2): 0.494
- phosphorylation enrichment (EPHB1): 0.488
- phosphorylation enrichment (c-Src): 1.57
- phosphorylation enrichment (Hck): 0.557
- phosphorylation enrichment (Fer (mouse)): 0.475
- phosphorylation enrichment (AncSZ): 0.782
- SH2 binding enrichment (c-Src SH2): 0.577
- SH2 binding enrichment (Grb2 SH2): 0.954
- SH2 binding enrichment (SHP2-C SH2): 1.17

Sequence: RSGIYYKPESL [L2HGDH_Y103_H98R]
- phosphorylation enrichment (FGFR3): 3.3
- phosphorylation enrichment (Jak2): 2.29
- phosphorylation enrichment (Fyn): 2.43
- phosphorylation enrichment (MERTK): 17
- phosphorylation enrichment (FGFR1): 5.07
- phosphorylation enrichment (Fes): 0.915
- phosphorylation enrichment (c-Abl (mouse)): 45.6
- phosphorylation enrichment (EPHB2): 3.34
- phosphorylation enrichment (EPHB1): 2.37
- phosphorylation enrichment (c-Src): 2.6
- phosphorylation enrichment (Hck): 4.86
- phosphorylation enrichment (Fer (mouse)): 0.699
- phosphorylation enrichment (AncSZ): 1.17
- SH2 binding enrichment (c-Src SH2): 0.854
- SH2 binding enrichment (Grb2 SH2): 0.935
- SH2 binding enrichment (SHP2-C SH2): 0.745

Sequence: KDFNKYVAYIE [KDM4B_Y31]
- phosphorylation enrichment (FGFR3): 0.53
- phosphorylation enrichment (Jak2): 0.603
- phosphorylation enrichment (Fyn): 0.365
- phosphorylation enrichment (MERTK): 0.379
- phosphorylation enrichment (FGFR1): 0.375
- phosphorylation enrichment (Fes): 0.767
- phosphorylation enrichment (c-Abl (mouse)): 0.483
- phosphorylation enrichment (EPHB2): 0.449
- phosphorylation enrichment (EPHB1): 0.461
- phosphorylation enrichment (c-Src): 0.364
- phosphorylation enrichment (Hck): 0.485
- phosphorylation enrichment (Fer (mouse)): 0.359
- phosphorylation enrichment (AncSZ): 0.718
- SH2 binding enrichment (c-Src SH2): 0.927
- SH2 binding enrichment (Grb2 SH2): 0.83
- SH2 binding enrichment (SHP2-C SH2): 1.14

Sequence: LIYTNYEAGKD [GSTP1_Y112]
- phosphorylation enrichment (FGFR3): 1.64
- phosphorylation enrichment (Jak2): 0.88
- phosphorylation enrichment (Fyn): 7.8
- phosphorylation enrichment (MERTK): 7.41
- phosphorylation enrichment (FGFR1): 1.78
- phosphorylation enrichment (Fes): 1.01
- phosphorylation enrichment (c-Abl (mouse)): 7.84
- phosphorylation enrichment (EPHB2): 8.11
- phosphorylation enrichment (EPHB1): 6.63
- phosphorylation enrichment (c-Src): 7.03
- phosphorylation enrichment (Hck): 5.36
- phosphorylation enrichment (Fer (mouse)): 5.02
- phosphorylation enrichment (AncSZ): 1.23
- SH2 binding enrichment (c-Src SH2): 0.503
- SH2 binding enrichment (Grb2 SH2): 1.09
- SH2 binding enrichment (SHP2-C SH2): 0.568

Sequence: GKTQQYDCKWF [BCR_Y751_YF]
- phosphorylation enrichment (FGFR3): 0.63
- phosphorylation enrichment (Jak2): 0.927
- phosphorylation enrichment (Fyn): 0.432
- phosphorylation enrichment (MERTK): 0.451
- phosphorylation enrichment (FGFR1): 0.472
- phosphorylation enrichment (Fes): 1.07
- phosphorylation enrichment (c-Abl (mouse)): 0.748
- phosphorylation enrichment (EPHB2): 0.563
- phosphorylation enrichment (EPHB1): 0.596
- phosphorylation enrichment (c-Src): 0.43
- phosphorylation enrichment (Hck): 0.425
- phosphorylation enrichment (Fer (mouse)): 0.463
- phosphorylation enrichment (AncSZ): 0.848
- SH2 binding enrichment (c-Src SH2): 0.466
- SH2 binding enrichment (Grb2 SH2): 0.826
- SH2 binding enrichment (SHP2-C SH2): 0.624

More lines, main results first:

- SH2 binding enrichment (c-Src SH2): 0.392
- SH2 binding enrichment (Grb2 SH2): 0.713
- SH2 binding enrichment (SHP2-C SH2): 0.636
Sequence: NKEAIYSGFIR [SMCHD1_Y283_YF]
- phosphorylation enrichment (FGFR3): 0.557
- phosphorylation enrichment (Jak2): 0.711
- phosphorylation enrichment (Fyn): 14.5
- phosphorylation enrichment (MERTK): 12.7
- phosphorylation enrichment (FGFR1): 0.59
- phosphorylation enrichment (Fes): 1.01
- phosphorylation enrichment (c-Abl (mouse)): 33.6
- phosphorylation enrichment (EPHB2): 7.14
- phosphorylation enrichment (EPHB1): 5.18
- phosphorylation enrichment (c-Src): 9.78
- phosphorylation enrichment (Hck): 13.1
- phosphorylation enrichment (Fer (mouse)): 5.17
- phosphorylation enrichment (AncSZ): 0.78

- SH2 binding enrichment (c-Src SH2): 0.426
- SH2 binding enrichment (Grb2 SH2): 0.752
- SH2 binding enrichment (SHP2-C SH2): 0.688
Sequence: RRFVFYFSFLL [PTEN_Y177_YF]
- phosphorylation enrichment (FGFR3): 0.608
- phosphorylation enrichment (Jak2): 0.622
- phosphorylation enrichment (Fyn): 0.741
- phosphorylation enrichment (MERTK): 0.593
- phosphorylation enrichment (FGFR1): 0.938
- phosphorylation enrichment (Fes): 0.744
- phosphorylation enrichment (c-Abl (mouse)): 0.502
- phosphorylation enrichment (EPHB2): 0.655
- phosphorylation enrichment (EPHB1): 0.654
- phosphorylation enrichment (c-Src): 0.611
- phosphorylation enrichment (Hck): 0.899
- phosphorylation enrichment (Fer (mouse)): 0.829
- phosphorylation enrichment (AncSZ): 1.06

- SH2 binding enrichment (c-Src SH2): 0.389
- SH2 binding enrichment (Grb2 SH2): 1.03
- SH2 binding enrichment (SHP2-C SH2): 0.554
Sequence: KEDSVYGSQSV [NFKB2_Y868_A867V]
- phosphorylation enrichment (FGFR3): 0.557
- phosphorylation enrichment (Jak2): 0.794
- phosphorylation enrichment (Fyn): 1.43
- phosphorylation enrichment (MERTK): 0.399
- phosphorylation enrichment (FGFR1): 0.353
- phosphorylation enrichment (Fes): 0.946
- phosphorylation enrichment (c-Abl (mouse)): 0.608
- phosphorylation enrichment (EPHB2): 0.41
- phosphorylation enrichment (EPHB1): 0.449
- phosphorylation enrichment (c-Src): 1.35
- phosphorylation enrichment (Hck): 0.984
- phosphorylation enrichment (Fer (mouse)): 0.498
- phosphorylation enrichment (AncSZ): 0.829
